# Measured values from patent US20250281630A1 (TORAY INDUSTRIES, published 2025).
# T1: human CAPRIN-1 on the cell membrane surface of human cancer cells (human, UniProt Q14444 2-709)
# T1 construct: whole, on cells
# T1 sequence (looked up): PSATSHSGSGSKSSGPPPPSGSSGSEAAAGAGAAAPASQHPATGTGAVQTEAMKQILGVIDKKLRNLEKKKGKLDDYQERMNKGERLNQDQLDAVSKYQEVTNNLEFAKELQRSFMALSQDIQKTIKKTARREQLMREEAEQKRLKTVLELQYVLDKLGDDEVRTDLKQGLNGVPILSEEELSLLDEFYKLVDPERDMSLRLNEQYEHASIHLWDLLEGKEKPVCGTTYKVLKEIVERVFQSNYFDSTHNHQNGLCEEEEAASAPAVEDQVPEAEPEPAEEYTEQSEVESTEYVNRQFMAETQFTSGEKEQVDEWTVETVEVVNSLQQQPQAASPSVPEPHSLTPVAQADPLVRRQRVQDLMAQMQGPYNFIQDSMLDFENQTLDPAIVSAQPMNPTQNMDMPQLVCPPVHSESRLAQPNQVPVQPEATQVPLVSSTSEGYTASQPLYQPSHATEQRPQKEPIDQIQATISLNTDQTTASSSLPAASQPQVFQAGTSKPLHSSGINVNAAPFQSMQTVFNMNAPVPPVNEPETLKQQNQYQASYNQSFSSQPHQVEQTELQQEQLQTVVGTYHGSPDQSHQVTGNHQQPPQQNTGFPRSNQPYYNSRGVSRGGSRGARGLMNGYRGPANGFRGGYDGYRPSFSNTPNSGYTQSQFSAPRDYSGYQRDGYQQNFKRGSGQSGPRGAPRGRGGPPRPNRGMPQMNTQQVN
# T2: mouse CAPRIN-1 on mouse cancer cells (mouse, UniProt Q60865 2-707)
# T2 construct: whole, on cells
# T2 sequence (looked up): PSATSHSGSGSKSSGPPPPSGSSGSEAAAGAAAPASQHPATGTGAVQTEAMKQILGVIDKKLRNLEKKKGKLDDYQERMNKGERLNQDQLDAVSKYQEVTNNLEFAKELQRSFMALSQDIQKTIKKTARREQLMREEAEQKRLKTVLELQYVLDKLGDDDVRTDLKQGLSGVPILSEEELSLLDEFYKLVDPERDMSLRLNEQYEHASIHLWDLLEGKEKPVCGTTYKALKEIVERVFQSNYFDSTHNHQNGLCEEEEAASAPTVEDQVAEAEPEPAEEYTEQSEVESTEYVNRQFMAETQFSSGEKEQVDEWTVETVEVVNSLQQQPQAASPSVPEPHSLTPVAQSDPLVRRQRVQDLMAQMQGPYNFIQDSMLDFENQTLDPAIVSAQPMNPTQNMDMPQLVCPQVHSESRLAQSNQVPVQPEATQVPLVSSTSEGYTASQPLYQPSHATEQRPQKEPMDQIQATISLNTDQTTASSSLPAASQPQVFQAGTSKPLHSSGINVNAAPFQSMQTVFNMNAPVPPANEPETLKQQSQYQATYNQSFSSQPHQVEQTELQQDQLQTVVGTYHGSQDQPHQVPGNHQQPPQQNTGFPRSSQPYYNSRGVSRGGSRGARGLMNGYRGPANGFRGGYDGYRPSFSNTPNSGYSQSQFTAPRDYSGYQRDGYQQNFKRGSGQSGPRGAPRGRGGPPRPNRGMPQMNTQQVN
# Experiments:
# [1] = biological target: T1, human CAPRIN-1 on the cell membrane …; assay: flow cytometry, BT474 cells
# Experimental: The tube was left at 4° C. for 1 hour. After washing with PBS, Alexa 488-labeled anti-rabbit IgG (H+L) diluted 100-fold with PBS(-) containing 0.5% FBS (0.5% FBS-PBS(-)) was added thereto, and the tube was left at 4° C. for 1 hour. After washing with 0.5% FBS-PBS(-), the cells were reacted with BD Horizon Fixable Viability Stain (FVS) Reagents (FVS450, Becton, Dickinson and Company) to stain dead cells, and the fluorescence intensity was then measured using FACSFortessa™ (Becton, Dickinson and Company).
# [2] = biological target: T2, mouse CAPRIN-1 on mouse cancer cells; assay: flow cytometry, Renca and 4T1 cells
binding result [1],binding result [2],Binder
binds,binds,"Conjugate 20 (antibody, human IgG1, V domains shown, human IgG1 constant regions; also called conjugate with MMAE using humanized antibody #14) VH: DAELVKPGASVKISCKASGYTFTDHSIHWVQQKPEQGLEWIGYISPGNGNIKYNEKFKGKATLTADKSSSTAYMQLNSLTSEDSAVYFCKRSLGRGGPYYFDYWGQGTTVTVSS VL: DIVLTQAAPSLPVTPGESVSISCRSSKSLLHSNGNTYLYWFLQRPGQSPQLLIYRMSNLASGVPDRFSGSGSGTAFTLRISRVEAEDVGVYYCMQHREYPVTFGSGPN"
binds,binds,"Conjugate 15 (antibody, human IgG1, V domains shown, human IgG1 constant regions; also called conjugate with MMAE using humanized antibody #9) VH: AVTLDESGGGLQTPGGALSLVCKASGFTFSGYDMLWVRQAPGKGLEWVAGIGSTGGGTDYGAAVKGRATISRDNGQSTVRLQLNNLRAEDTATYYCAKVAGGCNSGYCRDSPGSIDAWGHGTEVIVS VL: AVTQQPASVSANPGETVKITCSGGGSRNYYGWYQQKSPGSVPVTVIYYDDQRPSNIPSRFSGALSGSTSTLTITGVQADDEAVYFCGSADSNTYEGSFGAGTTLTVL"
binds,binds,"Conjugate 42 (antibody, human IgG1, V domains shown, human IgG1 constant regions; also called conjugate with MMAE using humanized antibody #36) VH: EVQLVESGGGLVQPGGSLRLSCAASGFSLSSHSLGWVRQAPGKGLEWIGDIRSGGSAYYANWAKGRFTISRDNSKNTLYLQMNSLRAEDTAVYYCTRTNGPSDLTNRLDLWGQGTLVTVSS VL: QVLTQSPSSLSASVGDRVTINCQASQSLYNNENLAWFQQKPGKVPKRLIYGASTLASGVSSRFSGSGSGTEFTLTISSLQCEDFAIYYCLGEFSCGSADCFAFGGGTKVEIK"
binds,binds,"Conjugate 44 (antibody, human IgG1, V domains shown, human IgG1 constant regions; also called conjugate with MMAE using humanized antibody #38) VH: EVQLVESGGGLVQPGGSLRLSCAASGFSLSSHSLGWVRQAPGKGLEWIGDIRSGGSAYYANWAKGRFTISRDNSKNTLYLQMNSLRAEDTAVYYCTRTNGPSDLTNRLDLWGQGTLVTVSS VL: EQVLTQSPSSLSASVGDRVTINCQASQSLYNNENLAWFQQKPGKVPKRLIYGASTLASGVSSRFSGSGSGTEFTLTISNLQPEDFAIYYCLGEFSCGSADCFAFGGGTKVEIK"
binds,binds,"Conjugate 126 (antibody, V domains shown, human IgG1 constant regions; also called conjugate with MMAE using humanized antibody #40) VH: EVQLVESGGGLVQPGGSLRLSCAASGFSLSSHSLGWVRQAPGKGLEWIGDIRSGGSAYYANWAKGRFTISRDNSKNTLYLQMNSLRAEDTAVYYCTRTNGPSDLTNRLDLWGQGTLVTVSS VL: EIVLTQSPSSLSASVGDRVTINCQASQSLYNNENLAWFQQKPGKVPKRLIYGASTLASGVSSRFSGSGSGTEFTLTISNLQPEDFATYYCLGEFSCGSADCFAFGGGTKVEIK"
binds,binds,"Conjugate 127 (antibody, V domains shown, human IgG1 constant regions; also called conjugate with MMAE using humanized antibody #41) VH: EVQLVESGGGLVQPGGSLRLSCAASGFSLSSHSLGWVRQAPGKGLEWIGDIRSGGSAYYANWAKGRFTISRDNSKNTLYLQMNSLRAEDTAVYFCTRTNGPSDLTNRLDLWGQGTLVTVSS VL: EQVLTQSPSSLSASVGDRVTINCQASQSLYNNENLAWFQQKPGKVPKRLIYGASTLASGVSSRFSGSGSGTEFTLTISNLQPEDFAIYYCLGEFSCGSADCFAFGGGTKVEIK"
binds,binds,"Conjugate 47 (antibody, human IgG1, V domains shown, human IgG1 constant regions; also called conjugate with MMAE using humanized antibody #41) VH: EVQLVESGGGLVQPGGSLRLSCAASGFSLSSHSLGWVRQAPGKGLEWIGDIRSGGSAYYANWAKGRFTISRDNSKNTLYLQMNSLRAEDTAVYFCTRTNGPSDLTNRLDLWGQGTLVTVSS VL: EQVLTQSPSSLSASVGDRVTINCQASQSLYNNENLAWFQQKPGKVPKRLIYGASTLASGVSSRFSGSGSGTEFTLTISNLQPEDFAIYYCLGEFSCGSADCFAFGGGTKVEIK"
binds,binds,"Conjugate 43 (antibody, human IgG1, V domains shown, human IgG1 constant regions; also called conjugate with MMAE using humanized antibody #37) VH: EVQLVESGGGLVQPGGSLRLSCAASGFSLSSHSLGWVRQAPGKGLEWIGDIRSGGSAYYANWAKGRFTISRDNSKNTLYLQMNSLRAEDTAVYFCTRTNGPSDLTNRLDLWGQGTLVTVSS VL: QVLTQSPSSLSASVGDRVTINCQASQSLYNNENLAWFQQKPGKVPKRLIYGASTLASGVSSRFSGSGSGTEFTLTISSLQCEDFAIYYCLGEFSCGSADCFAFGGGTKVEIK"
binds,binds,"Conjugate 88 (antibody, V domains shown, human IgG1 constant regions; also called conjugate with MMAE using humanized antibody #2) VH: EQSLVESGGGLVQPGGSLRLSCAASGFSLSSHSLGWVRQAPGKGLEWIGDIRSGGSAYYANWAKGRFTISRDNSKNTLYLQMNSLRAEDTAVYYCTRTNGPSDLTNRLDLWGQGTLVTVSS VL: QVLTQSPSSLSASVGDRVTINCQASQSLYNNENLAWFQQKPGKVPKRLIYGASTLASGVSSRFSGSGSGTEFTLTISSLQCEDFAIYYCLGEFSCGSADCFAFGGGTKVEIK"
binds,binds,"Conjugate 8 (antibody, human IgG1, V domains shown, human IgG1 constant regions; also called conjugate with MMAE using humanized antibody #2) VH: EQSLVESGGGLVQPGGSLRLSCAASGFSLSSHSLGWVRQAPGKGLEWIGDIRSGGSAYYANWAKGRFTISRDNSKNTLYLQMNSLRAEDTAVYYCTRTNGPSDLTNRLDLWGQGTLVTVSS VL: QVLTQSPSSLSASVGDRVTINCQASQSLYNNENLAWFQQKPGKVPKRLIYGASTLASGVSSRFSGSGSGTEFTLTISSLQCEDFAIYYCLGEFSCGSADCFAFGGGTKVEIK"
binds,binds,"Conjugate 125 (antibody, V domains shown, human IgG1 constant regions; also called conjugate with MMAE using humanized antibody #39) VH: EVQLVESGGGLVQPGGSLRLSCAASGFSLSSHSLGWVRQAPGKGLEWIGDIRSGGSAYYANWAKGRFTISRDNSKNTLYLQMNSLRAEDTAVYFCTRTNGPSDLTNRLDLWGQGTLVTVSS VL: EIVLTQSPSSLSASVGDRVTINCQASQSLYNNENLAWFQQKPGKVPKRLIYGASTLASGVSSRFSGSGSGTEFTLTISNLQPEDFATYYCLGEFSCGSADCFAFGGGTKVEIK"
binds,binds,"Conjugate 123 (antibody, V domains shown, human IgG1 constant regions; also called conjugate with MMAE using humanized antibody #37) VH: EVQLVESGGGLVQPGGSLRLSCAASGFSLSSHSLGWVRQAPGKGLEWIGDIRSGGSAYYANWAKGRFTISRDNSKNTLYLQMNSLRAEDTAVYFCTRTNGPSDLTNRLDLWGQGTLVTVSS VL: QVLTQSPSSLSASVGDRVTINCQASQSLYNNENLAWFQQKPGKVPKRLIYGASTLASGVSSRFSGSGSGTEFTLTISSLQCEDFAIYYCLGEFSCGSADCFAFGGGTKVEIK"
binds,binds,"Conjugate 46 (antibody, human IgG1, V domains shown, human IgG1 constant regions; also called conjugate with MMAE using humanized antibody #40) VH: EVQLVESGGGLVQPGGSLRLSCAASGFSLSSHSLGWVRQAPGKGLEWIGDIRSGGSAYYANWAKGRFTISRDNSKNTLYLQMNSLRAEDTAVYYCTRTNGPSDLTNRLDLWGQGTLVTVSS VL: EIVLTQSPSSLSASVGDRVTINCQASQSLYNNENLAWFQQKPGKVPKRLIYGASTLASGVSSRFSGSGSGTEFTLTISNLQPEDFATYYCLGEFSCGSADCFAFGGGTKVEIK"
binds,binds,"Conjugate 45 (antibody, human IgG1, V domains shown, human IgG1 constant regions; also called conjugate with MMAE using humanized antibody #39) VH: EVQLVESGGGLVQPGGSLRLSCAASGFSLSSHSLGWVRQAPGKGLEWIGDIRSGGSAYYANWAKGRFTISRDNSKNTLYLQMNSLRAEDTAVYFCTRTNGPSDLTNRLDLWGQGTLVTVSS VL: EIVLTQSPSSLSASVGDRVTINCQASQSLYNNENLAWFQQKPGKVPKRLIYGASTLASGVSSRFSGSGSGTEFTLTISNLQPEDFATYYCLGEFSCGSADCFAFGGGTKVEIK"
binds,binds,"Conjugate 19 (antibody, human IgG1, V domains shown, human IgG1 constant regions; also called conjugate with MMAE using humanized antibody #13) VH: GAELVRSGASVKMSCKASGYSFTDYNMYWVKQTPGQGLEWIGYIYPGNGGTNYNQKFKGKATLTADTSSSTAYMQISSLTSEDSAVYFCARDYDDGGYAMDYWGQGTTVTVSS VL: DIQMTQSPASLSASVGETVTITCRASGNIHNYLTWYQQKQGKSPQLLVYNAKTLADGVPSRFSGSGSGTQYSLKINRLQPEDFGSYYCQHFWNIPWTFGGGTKLNSR"
